Consider nine molecules from patent publication US20240252641A1 (published 2024).

What is called Kd is the concentration at which binding is half-saturated.

T1: human CD70, recombinant, N-terminally biotinylated (residues 39-193) (human, UniProt P32970 39-193, N-terminal biotin)
T1 chain: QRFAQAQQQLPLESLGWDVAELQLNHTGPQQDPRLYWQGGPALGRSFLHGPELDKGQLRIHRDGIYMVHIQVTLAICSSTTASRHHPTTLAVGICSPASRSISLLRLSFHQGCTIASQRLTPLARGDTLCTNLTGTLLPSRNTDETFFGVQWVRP

B1: 1-TC4-I-C10 (scFv)
scFv: EVQLVQSGAEVKKPGESLKISCKGSGYSFTSYWIGWVRQMPGKGLEWMGIIYPGDSDTRYSPSFQGQVTISADKSISTAYLQWSSLKASDTAMYYCAISRTESYVMDVWGQGTTVTVSSGGSGGSGGSGGSQSALTQPRSVSGSPGQSVTISCTGTSSDVGGYNYVSWYQQHPGKAPKLMIYDVTNRPSGVPDRFSASKSDNTATLTVSGVQAEDEADYYCSSYAGSHELFGGGTKLTVL
B2: 39-TC6-IV-B08 (scFv)
scFv: QVQLVESGGGVVQPGGSLRLSCAASGFTFSSYAMHWVRQAPGKGLEWVAVISYDGSNKYYADSVKGRFTISRDNSKNTLYLQMNSLRAEDTAVYYCARDGHPYYYGMDVWGQGTTVTVSSGGSGGSGGSGGSQSALTQPASVSGSPGQSITISCTGTSSDVGDYNYVSWYQHHPGKAPKLMIYDVSNRPSGVSNRFSGSKSGNTASLTISGLQAEDEADYYCGSYTGSDTWVFGGGTKVTVL
B3: 50-TC7-III-A11 (scFv)
scFv: QVQLVQSGAEVKRPGASVKVSCKASGYTFTSYYMHWVRQAPGQGLEWMGIINPSGGSTSYAQKFQGRVTMTRDTSTSTVYMELSSLRSEDTAVYYCAIEPGYCSGGSCYPDAFDIWGQGTTVTVSSGGSGGSGGSGGSQSVLTQPPSASGTPGQRVTISCSGSSSNIGSDYVYWYQRVPGTAPKLLIYRDNQRPSGVPDRFSGSKSGTSASLAISGLRSDDEADYYCAAWDDSLSGWVFGGGTKVTVL
B4: human CD27 fused to human Fc domain (Fc fusion)
chain: TPAPKSCPERHYWAQGKLCCQMCEPGTFLVKDCDQHRKAAQCDPCIPGVSFSPDHHTRPHCESCRHCNSGLLVRNCTITANAECACRNGWQCRDKECTECDPLPNPSLTARSSQALSPHPQPTHLPYVSEMLEARTAGHMQTLADFRQLPARTLSTHWPPQRSLCSSDFIRI
B5: R3aP3E8 VHH (VHH)
VHH: QVQLQESGGGLVQPGGSLRLSCVASGSIFSIARMNWYRQAPGKQRELVAILNRAGRTDYADSVKGRFTISSDNAKTTVYLQMNSLKPEDTALYYCNLQTISYHDFWGQGTQVTVSS
B6: R3aP9D10 VHH (VHH)
VHH: QVQLQESGGGLVQAGGSLRLSCAAPGFTFDAYAIGWFRQAPGKEREGVICLSPSDGSTYYADSVKGRFTISSDNAKNTVYLQMNSLKPEDTAVYYCATPSWCSLKADFGSWGQGTQVTVSS
B7: R3P3H12 VHH (VHH)
VHH: QVQLQESGGGLVQTGGSLRLSCTASGSIFDIVRGSWYRQAPGNQRELVAIITSGGATNYADSVAGRFTISRDSAWKALYLQMNSLKPEDTAVYFCNMESVRYRNYWGQGTQVTVSS
B8: R3P5A1 VHH (VHH)
VHH: QVQLQESGGGLVQPGGSLRLSCTASGSIFSATRMEWYRQAPGKQRELVAIVTSGGRTNYADSVNGRFTISRDNAKNTLYLQMNNLKPEDTAVYYCKFERYDYVNYWGRGTQVTVSS
B9: CD70 (ligand)
chain: QRFAQAQQQLPLESLGWDVAELQLNHTGPQQDPRLYWQGGPALGRSFLHGPELDKGQLRIHRDGIYMVHIQVTLAICSSTTASRHHPTTLAVGICSPASRSISLLRLSFHQGCTIASQRLTPLARGDTLCTNLTGTLLPSRNTDETFFGVQWVRP
modifications: N-terminal biotin

One assay deals with T1, human CD70, recombinant, N-terminally …. In words: Octet BLI steady-state. On the technique in general: BLI is a label-free optical method that tracks binding on a fibre tip over time.
Regarding B1, the Kd was found to be 56.7 nM.
Take B2: the Kd was determined as 41.7 nM.
The same measure, in the same setting: in the case of B3 it was 55.7 nM.

Another assay shares this target. Description: Octet BLI.
Regarding B4, the Kd came to 1.7 nM.
Regarding B5, the dissociation constant (Kd) was 0.027 nM.
For the molecule B6, the Kd came out at 0.036 nM.
The same measure, in the same setting: under B7 stands 0.16 nM; under B8, 0.025 nM.

Another assay has as its target 41D12 (LwH). In words: Octet BLI.
Take B9: the equilibrium dissociation constant (Kd) came to 0.001 nM.
